The target of this assay is Histone H3K4me3 peptide (Homo sapiens, UniProt P68431).

B1: ING4 PHD (protein)
chain: PNEPTYCLCHQVSYGEMIGCDNPDCSIEWFHFACVGLTTKPRGKWFCPRCSQERKK
Take B1: binding was put at a Kd of 7.9 µM.

The values above are taken from PMC2650391 (2009).
